Data from patent US20130230533A1 (Regeneron, published 2013).

T1: human CD48 (on primary human peripheral blood mononuclear cells) (human, UniProt P09326 27-220)
T1 sequence: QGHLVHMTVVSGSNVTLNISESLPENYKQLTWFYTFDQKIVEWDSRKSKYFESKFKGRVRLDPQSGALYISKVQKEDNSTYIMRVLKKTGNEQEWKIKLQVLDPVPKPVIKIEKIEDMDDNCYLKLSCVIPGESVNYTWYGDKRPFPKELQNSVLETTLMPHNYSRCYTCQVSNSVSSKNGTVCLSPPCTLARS

T2: biotinylated dimeric human CD48 protein expressed as a fusion with mouse IgG2a Fc (human, biotinylated)
T2 construct: also called bio-hCD48-mFc; Dimeric human CD48-mFc
T2 chain: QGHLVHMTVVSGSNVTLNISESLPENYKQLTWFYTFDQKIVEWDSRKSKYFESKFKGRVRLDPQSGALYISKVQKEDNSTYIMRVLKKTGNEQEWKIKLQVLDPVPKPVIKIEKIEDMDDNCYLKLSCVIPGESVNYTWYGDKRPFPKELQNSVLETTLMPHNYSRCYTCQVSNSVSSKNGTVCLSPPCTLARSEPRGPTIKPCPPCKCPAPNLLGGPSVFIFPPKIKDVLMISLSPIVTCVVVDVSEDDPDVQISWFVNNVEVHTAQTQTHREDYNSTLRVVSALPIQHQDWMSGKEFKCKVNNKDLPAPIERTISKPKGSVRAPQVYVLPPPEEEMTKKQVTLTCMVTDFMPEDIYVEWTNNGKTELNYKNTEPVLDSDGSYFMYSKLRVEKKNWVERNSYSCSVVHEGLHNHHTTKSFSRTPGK

T3: monomeric monkey CD48 expressed with a tag consisting of 2 myc and one 6-His epitopes (monkey)
T3 construct: also called mfCD48-mmH; Monomeric monkey CD48-mmH
T3 chain: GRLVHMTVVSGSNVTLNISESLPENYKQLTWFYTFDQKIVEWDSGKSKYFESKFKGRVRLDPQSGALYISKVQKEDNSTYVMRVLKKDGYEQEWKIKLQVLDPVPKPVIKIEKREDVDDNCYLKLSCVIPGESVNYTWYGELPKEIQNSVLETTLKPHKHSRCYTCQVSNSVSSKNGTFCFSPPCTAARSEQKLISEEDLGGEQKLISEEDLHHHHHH


What was measured:
[1] = target: T1, human CD48 (on primary human peripheral …); assay: cell-based or functional assay
[2] = target: T2, biotinylated dimeric human CD48 protein …; assay: competition ELISA; blocks bio-hCD48-mFc binding to coated h2B4-hFc
Protocol: (§1) The ability of human anti-CD48 monoclonal antibodies to block human CD48 and monkey CD48 binding to the human cognate ligand, human 2B4, was measured using a competition sandwich ELISA (Table 8). Constant amounts of biotinylated dimeric human CD48 protein expressed as a fusion with mouse IgG2a Fc (“bio-hCD48-mFc” [SEQ ID NO: 387]) or monomeric monkey CD48 expressed with a tag consisting of 2 myc and one 6-His epitopes (“mfCD48-mmH” [SEQ ID NO: 386]) were separately titrated with varying amounts of antibodies. These antibody-protein complexes were incubated (1 hr, 25° C.) before being transferred to microtiter plates coated with a dimeric construct expressing the human 2B4 receptor fused to a either human IgG1 (h2B4-hFc [R&D Systems, Inc., Minneapolis, Minn., Cat. No. 1039-2B]) or mouse IgG2a Fc (h2B4-mFc [SEQ ID NO: 389). After a 1 hr at 25° C. the wells were washed and bound human CD48 was detected with streptavidin conjugated with horse-radish peroxidase (HRP), and monkey CD48 was detected with an HRP conjugated anti-myc polyclonal antibody. The ELISA was developed with a TMB solution to produce a colorimetric reaction and quenched with sulfuric acid before reading absorbance at 450 nm on a Victor X5 plate reader. Sigmoidal dose response curves were fit to the data using Prism™ software. […] (Tables 8 and 9, NB=no binding observed)

[3] = target: T3, monomeric monkey CD48 expressed with a …; assay: competition ELISA; blocks mfCD48-mmH binding to coated h2B4-hFc
Protocol: as §1

[4] = target: T1, human CD48 (on primary human peripheral …); assay: cell-based or functional assay; remark: listed apart in the source
[5] = target: T1, human CD48 (on primary human peripheral …); assay: cell-based or functional assay; remark: listed apart in the source
[6] = target: T2, biotinylated dimeric human CD48 protein …; assay: competition ELISA; blocks bio-hCD48-mFc binding to coated h2B4-mFc
Protocol: as §1

[7] = target: T3, monomeric monkey CD48 expressed with a …; assay: competition ELISA; blocks mfCD48-mmH binding to coated h2B4-mFc
Protocol: as §1

[8] = target: T1, human CD48 (on primary human peripheral …); assay: cell-based or functional assay; remark: listed apart in the source
[9] = target: T1, human CD48 (on primary human peripheral …); assay: cell-based or functional assay; remark: listed apart in the source

Binder | % Blockade of IFNγ release, MLR; D1 [4] [%] | % Blockade of IFNγ release, MLR; D2 [4] [%] | % Blockade of IFNγ release, MLR; D3 [4] [%] | % Blockade of IFNγ release, MLR; D4 [4] [%] | % Blockade of IFNγ release, MLR; D5 [4] [%] | % Blockade of IFNγ release, MLR; D6 [4] [%] | % Blockade of IFNγ release, MLR; D7 [4] [%] | % Blockade of IFNγ release, MLR; D8 [4] [%] | % Blockade of IFNγ release, MLR; D9 [4] [%] | Inhibition of IFN-gamma Release IC50; Donor 7 [5] [Molar] | IC50 [6] [nM] | IC50 [7] [nM] | Inhibition of IFN-gamma Release IC50; Donor 8 [8] [Molar] | Inhibition of IFN-gamma Release IC50; Donor 9 [8] [Molar] | Inhibition of IFN-gamma Release IC50; Donor 10 [8] [Molar] | Inhibition of IFN-gamma Release IC50; Donor 6 [5] [Molar] | other results
H2M1712N (antibody, mouse IgG2, V domains shown, Human variable domains, mouse IgG2 Fc (H2M)) VH: QIQLVQSGAEMKRPGTSVKVSCKASGYTFSSYGINWVRQAPGQGLEWMGWISAYNGDTNYAQKLQGRVTMTTDTSTTTAYMEVRSLRSDDTAVYYCARFLTGTKDLYYGMDVWGQGTTVTVSS VL: DIQMTQSPSSLSASVGDRVTITCQASQDISNFLNWYQQKPGKAPDLLINDASILETGVPSRFSGSGSGTDFTLTINSLQPEDIATYYCQQYDNLPLTFGGGTKVEIK | – | – | – | – | – | – | – | – | – | – | – | – | – | – | – | – | Inhibition of IFN-gamma Release IC50; Donor 1 [1]: 2e-11 Molar; Inhibition of IFN-gamma Release IC50; Donor 2 [1]: 2.8e-11 Molar; Inhibition of IFN-gamma Release IC50; Donor 3 [1]: 7.2e-11 Molar; Inhibition of IFN-gamma Release IC50; Donor 4 [1]: 4.8e-11 Molar; Inhibition of IFN-gamma Release IC50; Donor 5 [1]: 1.1e-11 Molar; IC50 [2]: 0.014 nM; IC50 [3]: 0.017 nM
H4H1789Pa (antibody, V domains shown, Human IgG4 Fc (H4H)) VH: EVQLLESGGGLVHPGGSLRLSCAASGFTFGGYAMSWVRQAPGKGLEWVSLISGSGGSTYYADSVKGRFTIFRDNSKNTLYLQMISLRAEDSAVYYCAKYSNYDYFDPWGQGTLVTVSS VL: not shown | 65 | 66 | 88 | 36 | 89 | 82 | 75 | 65 | 66 | 1.8e-11 | 0.053 | 0.038 | 3.7e-11 | 1.6e-11 | 1.3e-11 | 1.2e-11 | IC50 of IFNγ release, MLR; D1 [9]: ~0.0014 nM; IC50 of IFNγ release, MLR; D2 [9]: ~0.0093 nM; IC50 of IFNγ release, MLR; D4 [9]: 0.23 nM; IC50 of IFNγ release, MLR; D5 [9]: ~0.09 nM; IC50 of IFNγ release, MLR; D6 [9]: 0.0028 nM; IC50 of IFNγ release, MLR; D8 [9]: 0.029 nM; IC50 of IFNγ release, MLR; D9 [9]: 0.18 nM; IC50 of IFNγ release, MLR; D10 [9]: ~0.05 nM; IC50 of IFNγ release, MLR; D11 [9]: ~0.092 nM; IC50 of IFNγ release, MLR; D12 [9]: ~0.3 nM; IC50 of IFNγ release, MLR; D13 [9]: ~0.096 nM; IC50 of IFNγ release, MLR; D14 [9]: 0.2 nM; IC50 of IFNγ release, MLR; D15 [9]: ~0.0027 nM; IC50 of IFNγ release, MLR; D16 [9]: ~0.012 nM; Inhibition of IFN-gamma Release IC50; Donor 11 [8]: 1.3e-11 Molar

The remaining binders from weak to strong by IC50 [6], led by results:

% Blockade of IFNγ release, MLR; D1 [4] [%] | % Blockade of IFNγ release, MLR; D2 [4] [%] | % Blockade of IFNγ release, MLR; D3 [4] [%] | % Blockade of IFNγ release, MLR; D4 [4] [%] | % Blockade of IFNγ release, MLR; D5 [4] [%] | % Blockade of IFNγ release, MLR; D6 [4] [%] | % Blockade of IFNγ release, MLR; D7 [4] [%] | % Blockade of IFNγ release, MLR; D8 [4] [%] | % Blockade of IFNγ release, MLR; D9 [4] [%] | Inhibition of IFN-gamma Release IC50; Donor 7 [5] [Molar] | IC50 [6] [nM] | IC50 [7] [nM] | Inhibition of IFN-gamma Release IC50; Donor 8 [8] [Molar] | Inhibition of IFN-gamma Release IC50; Donor 9 [8] [Molar] | Inhibition of IFN-gamma Release IC50; Donor 10 [8] [Molar] | Inhibition of IFN-gamma Release IC50; Donor 6 [5] [Molar] | Binder | other results
42 | 77 | 87 | 37 | 70 | 72 | 69 | 22 | 60 | 5.1e-12 | 0.044 | 0.043 | 3.1e-12 | 2.3e-12 | 2e-11 | – | H4H1775P (antibody, human IgG4, V domains shown, Human IgG4 Fc (H4H)) VH: QVQLVESGGGVVQPGRSLRLSCAASGFTFSNYGMHWVRQAPGKGLEWVAVIWYDESGKHYADSVKGRFTISRDNSQNTLYLQMTSLRAEDTAVYYCARDRWTYSHYFEYWGQGTLVTVSS VL: DIQMTQSPSSVSASVGDRVTITCRASQDISSWVAWYQQKPGKAPKLLIYAASSLQSGVPSRFSGSGSGTDFTLTISSLQPEDFATYYCQQANSFPRTFGQGTKVEIK | –
– | – | – | – | – | – | – | – | – | 1.5e-11 | 0.018 | 0.0081 | – | – | – | 3.6e-11 | H4H1781P (antibody, human IgG4, V domains shown, Human IgG4 Fc (H4H)) VH: QVQLVESGGGVVQPGRSLRLSCAASGFTFSNYGMHWVRQAPGKGLEWVAVIWYDDSNKNYADSVKGRFTISRDNSKNTLYLQMNSLRVEDTAVYYCARDRWTYSHFFEYWGQGTLVTVSS VL: DIQMTQSPSSVSASVGDRVTITCRASQGISSWLAWYQQKPGKAPNLLIYAASSLQSGVPSRFGGSGSGTDFSLTISGLQPEDFATYYCQQANSFPRTFGQGTKVEIK | –
